These results are taken from the RNAGym collection of RNA variant scans (doi:10.1073/pnas.2313332121).

Sequences and labels used below:
B1: TPR t1 (parent)
chain: GACCAAUCUGCCCUCAGAGCUCGAGAACAUCUUCGGAUGCAGAGGAGGCAGGCUUCGGUGGCGCGAUAGCGCCAACGUCCUCAACCUCCAAUGCAUCCCACCACAUGAUGAUGCCUGAAGAGCCUUGGUUUUUUG

In the data set the parent is B1. Description: polymerase ribozyme fitness, log enrichment relative to wild type (log ratio); higher = more active; in vitro selection for triplet polymerase activity. Summed up:
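A single round of triplicate in vitro selection, including frozen incubation at −7 °C, was applied to PCR-built, transcribed mutant libraries of each subunit of a heterodimeric triplet polymerase ribozyme. Illumina sequencing of input and output libraries retained genotypes with ≥10 input reads and ≥1 read per output. Fitness is the base-2 logarithm of genotype enrichment divided by wild-type enrichment, from inverse-variance-weighted replicate averages.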
C11U G93C G122A: the “polymerase ribozyme fitness (log ratio)” value was -0.0927. With C12G U109A, the “polymerase ribozyme fitness (log ratio)” value was -4.88. To G57U G60A C80U G122U belongs -2.06; to C72G C97U, -1.05. To C12A G19U C79G belongs -5.7; to G60U G113U, -2.04. As for G44U C64U C102A, the “polymerase ribozyme fitness (log ratio)” value is -2.68. To G69C A83G G120C belongs -1.54; to G63A C104U G120A G127A, -0.508.

In the case of C12G G17C U87G C97A C123G, the “polymerase ribozyme fitness (log ratio)” value is -6.84. To C20A C82U U87G C102A belongs -4.69; to C31G A50U G60C G110C, -6.92. The same measure for U81C C85A C89A: -4.24; for A2C A27G A29U G77A G113A C124G: -3.05. For C20U C49G G52C C72A G93U G117U A119G G128U, the “polymerase ribozyme fitness (log ratio)” value is -4.52. Take A105U U125A: the “polymerase ribozyme fitness (log ratio)” value is -2.77.

With A16G A50U, the “polymerase ribozyme fitness (log ratio)” value was -2.5.

On to C13A G60U, for which the “polymerase ribozyme fitness (log ratio)” value is -1.81.

Turning to A50C C70A C82G A84C, the “polymerase ribozyme fitness (log ratio)” value was -2.37. To C11U A121C belongs 1.76. For the variant A27C C72U, the “polymerase ribozyme fitness (log ratio)” value was -2.78. The same measure for C49G G63C A111G G120A: -2.1.

Consider C31U U38A A68C C72U C76G U112A G117C, for which the “polymerase ribozyme fitness (log ratio)” value is -6.6. The same measure for U9G C34A A41G: -3.4; for A41C G61A G127A: -1.68; for U21A C72U: -2.3.

Take C3U C28U: the “polymerase ribozyme fitness (log ratio)” value is -2.28.

C40U G69C C85U A100G U106C U112C: the “polymerase ribozyme fitness (log ratio)” value was -4.82.

As for C12A C13G G45C G63A A119U C124A U132A, the “polymerase ribozyme fitness (log ratio)” value was 0.867.

C3A A111C: the “polymerase ribozyme fitness (log ratio)” value was -1.17. On to U21A A41U A90G, for which the “polymerase ribozyme fitness (log ratio)” value was -0.995. The same measure for C34U G52U: -5.84; for G19A A91G G117A: -5.25. The same measure for C20A A50U G120A: -3.84. For G45C U78C C124A, the “polymerase ribozyme fitness (log ratio)” value came out at 0.349. On to C8A A24G G113A, for which the “polymerase ribozyme fitness (log ratio)” value is -3.12.

Regarding C4U C72G, the “polymerase ribozyme fitness (log ratio)” value was -0.855. To C12U G23A belongs -3.55; to A6C C12A A84G U92C U106G G113C, -5.99; to A18U G60A C88G A118U U130G, -3.95.

As for G17A C56G, the “polymerase ribozyme fitness (log ratio)” value was -3.4. The same measure for C70G C80U: -2.51.

As to C12U C20U A43U C62U U96C U106A U129A, the “polymerase ribozyme fitness (log ratio)” value is -6.14. The same measure for G10C A26G C62G: -4.17; for A18U G42C A43C G93C: -5.75. The same measure for G44C C53A C72U C88U A100U: -0.423; for G61U U87G: 0.809. Consider C62U G77U, for which the “polymerase ribozyme fitness (log ratio)” value was -0.487. To C13U C79A C104A belongs -2.96; to G10C G42C C123A G128A, -2.91; to G69C A90U, -2.68. The same measure for A18U G57A U106A: -5.57; for C94A C101G C123G: -1.92; for C73G A74U C89U: -2.48.

G135U: the “polymerase ribozyme fitness (log ratio)” value is -0.939. For the variant G45C G63C, the “polymerase ribozyme fitness (log ratio)” value was -2.1. The same measure for G58C C72U: -0.231; for C8G C99U: -2.82. To C8A A91G belongs -0.00436. As to G42U C53U C82U G93A C99A G107U C114G C123G U125A G127A, the “polymerase ribozyme fitness (log ratio)” value is -4.42.

Regarding A2U A16U G45A U87C A121C, the “polymerase ribozyme fitness (log ratio)” value was -2.88. In the case of G60U U78C A90C G117U, the “polymerase ribozyme fitness (log ratio)” value is -4.13. Turning to U7G C70U A83U U131A, the “polymerase ribozyme fitness (log ratio)” value came to 0.0577. The same measure for C76G G113A G122C G135U: -2.49; for A6U G60A U81A C99U: -5.5; for C4A U59A C88A: -2.43.

Take G57U C123A: the “polymerase ribozyme fitness (log ratio)” value is 0.124.

Turning to C13U G127C, the “polymerase ribozyme fitness (log ratio)” value is -1.18.

Consider A103U G110C, for which the “polymerase ribozyme fitness (log ratio)” value is -7.11. Turning to G47C A90U G128C, the “polymerase ribozyme fitness (log ratio)” value was -5.03. To C85U A91C belongs -2.1; to G63U U116C U129A, -3.33. Regarding G44A C72G U96G, the “polymerase ribozyme fitness (log ratio)” value is -2.52.

Regarding C8G A16G A90C U96C U112A, the “polymerase ribozyme fitness (log ratio)” value stood at 0.488. For the variant G61C A105C, the “polymerase ribozyme fitness (log ratio)” value was -4.76. To C73U C101U G122A belongs -0.395; to U7G C123A, 1.97.

Turning to C40A C114A G135A, the “polymerase ribozyme fitness (log ratio)” value is -3.46. The same measure for C85U U106G: -2.74. U54A G61U U96C C99A: the “polymerase ribozyme fitness (log ratio)” value was -5.82. The same measure for C28G U81A U87C: -2.99. For the variant G44C U55A A103U U130A, the “polymerase ribozyme fitness (log ratio)” value was -5.8.

Take U38G C70U U125G: the “polymerase ribozyme fitness (log ratio)” value was -2.25. As for A5G C85G, the “polymerase ribozyme fitness (log ratio)” value is -2.35.

A68G C124U: the “polymerase ribozyme fitness (log ratio)” value was -1.26. To C56A G63A C89U belongs -3.22; to U9A C13A C22G G48C G71A, -5.83; to A16U A37G, -2.1.

In the case of C8A G23A A66G G69U C104U A118G, the “polymerase ribozyme fitness (log ratio)” value was -5.28. As to C13A C73U C79U U132A, the “polymerase ribozyme fitness (log ratio)” value is -1.98. As to G45A A121G, the “polymerase ribozyme fitness (log ratio)” value was determined as 1.78. The same measure for G23A C56G C76U G110A G117A C124G: -7.16.

Take A18U C49A: the “polymerase ribozyme fitness (log ratio)” value is -2.29.

Take G39U U78G A83C A91G U129A: the “polymerase ribozyme fitness (log ratio)” value is -3.94.

As for C73U C123U, the “polymerase ribozyme fitness (log ratio)” value came out at 0.98. With G44U G47U C49U C72A A74G U96G U132A, the “polymerase ribozyme fitness (log ratio)” value was -5.92. On to U7A C88G, for which the “polymerase ribozyme fitness (log ratio)” value is -0.397. To C31G C34U U109G G110C belongs -6.14; to G61A U78A U126G, -2.02; to A6C G107U, -4.64. C11U G52A C56U C72G U109G: the “polymerase ribozyme fitness (log ratio)” value is -5.83. The same measure for U9G C11A A18G A41U U78G: -4.42. To U9C G10C C62G C72A A111G U125C belongs -4.6; to C40A G45U G63A, -2.99. The same measure for C22A G23A G35A C82G C89U C104U A111U: -6.73; for G77U G120C: 0.43; for C22G G47U: -4.11. For U9C C15U G42C, the “polymerase ribozyme fitness (log ratio)” value is -0.305. To C11A U96A G113C belongs -5.3; to A41C A83U, -1.29; to U7C G48U C53U G77A U81A U96C G120C, -2. For G42A G44A G47U C64U, the “polymerase ribozyme fitness (log ratio)” value is -4.22.

On to C13U U112A U126G, for which the “polymerase ribozyme fitness (log ratio)” value came to 0.677. Regarding U9G C98A, the “polymerase ribozyme fitness (log ratio)” value was -5.08. To G25C U32A G42C G45A G51C A111U belongs -8.24.

Regarding C11A C73G, the “polymerase ribozyme fitness (log ratio)” value is -1.79.

For G45C U55A A95U C114U, the “polymerase ribozyme fitness (log ratio)” value was -3.85. To U14C C97U belongs -3.31; to G61A G120A, 0.833; to C15U G25U A26U G51A C99U U112G C114G G135A, -6.73.

U92C U112G G113U U130C: the “polymerase ribozyme fitness (log ratio)” value was -5.75. The same measure for G45A U96G: -1.51; for C101G G135U: -2.44. To A43C C62U C72G belongs -4.05; to C3G C11A C115U, -6.42; to A2G A41C G42A C82G C89A U92G G120U, -5.77. The same measure for G36C G63U A95C A111U: -6.67; for C56A A108G G117U: -3.81; for C15U G71C: -1.05. Consider C13G C62A, for which the “polymerase ribozyme fitness (log ratio)” value was -1.11. Take G35U C101A: the “polymerase ribozyme fitness (log ratio)” value is -4.48. On to C4U G52U C73A, for which the “polymerase ribozyme fitness (log ratio)” value was -0.845.

Turning to G44C C72U A100C, the “polymerase ribozyme fitness (log ratio)” value is -2.51. To G39A G60A belongs -0.734; to C15A C64U G110C, -6.12; to G10A G45C, -0.489. The same measure for C53G G120C U125C: 0.247. To G51A U54G C72G C80A C82G belongs -4.89; to A27G A43U G47A C98U, -5.67; to C34U G52A G71U, -4.6. As to U9G G110A, the “polymerase ribozyme fitness (log ratio)” value is -0.713. Consider A29G C72G, for which the “polymerase ribozyme fitness (log ratio)” value was -1.98. To C40U A46G G61U G110A U116A belongs -3.75. To G57U C73U G127U belongs -1.28; to C12A U87A, -0.82. For C11A C12U A37G C73U U78A U131A, the “polymerase ribozyme fitness (log ratio)” value was -0.943.

As for A18C C40G C70A A83G C94U C115U U129G, the “polymerase ribozyme fitness (log ratio)” value was -5.58. As for G60U C62U G117U, the “polymerase ribozyme fitness (log ratio)” value was -5.73. The same measure for G63A A66U U106A G117A: -4.86; for G48C G57A G63A G93U G127A: -4.97; for G39A A41G A83G C94A: -4.25. To A6U C49U G60A C94G G113A belongs -3.92; to C72G C102A A105C, -5.78.

On to G45A G128A, for which the “polymerase ribozyme fitness (log ratio)” value is -2.84.

Consider C15U C62G C82A, for which the “polymerase ribozyme fitness (log ratio)” value was -2.4. To A46C G63C G93A U116A G120U G135U belongs -4.76; to C101G G110A, -4.15; to C80U C82G C101A C124G U126A, -1.21.

On to C8U G10A G42A G45A C53U C85A, for which the “polymerase ribozyme fitness (log ratio)” value is -4.02.

Regarding U33A A68U, the “polymerase ribozyme fitness (log ratio)” value is -7.2. The same measure for C86U C98U G117C: -5.99.

On to G10C U109A, for which the “polymerase ribozyme fitness (log ratio)” value is -6.66. To C40G C72G belongs -1.56; to G113A U116A, -4.71; to C8U G57A, -0.0154. The same measure for C20U C53U G113C: -1.84; for U54G U87C: -0.0304.
